# Results: patent publication US20250320281A1
# Tests used:
# [1] = molecular target: HIV-1 92TH021 Env (pseudovirus) (HIV-1); assay: cell-based or functional assay
# [2] = molecular target: HIV-1 92UG005 Env (pseudovirus) (HIV-1); assay: cell-based or functional assay
# [3] = molecular target: HIV-1 92UG024 Env (pseudovirus) (HIV-1); assay: cell-based or functional assay
# [4] = molecular target: HIV-1 CMU02 Env (pseudovirus) (HIV-1); assay: cell-based or functional assay
# [5] = molecular target: HIV-1 Env of isolate MGRM-C-001 (HIV-1); assay: cell-based or functional assay
# [6] = molecular target: HIV-1 Env of isolate MGRM-C-002 (HIV-1); assay: cell-based or functional assay
# [7] = molecular target: HIV-1 Env of isolate MGRM-C-004 (HIV-1); assay: cell-based or functional assay
# [8] = molecular target: HIV-1 Env of isolate MGRM-C-005 (HIV-1); assay: cell-based or functional assay
# [9] = molecular target: HIV-1 Env of isolate MGRM-C-006 (HIV-1); assay: cell-based or functional assay
# [10] = molecular target: HIV-1 Env of isolate MGRM-C-007 (HIV-1); assay: cell-based or functional assay
# [11] = molecular target: HIV-1 Env of isolate MGRM-C-008 (HIV-1); assay: cell-based or functional assay
# [12] = molecular target: HIV-1 Env of isolate MGRM-C-009 (HIV-1); assay: cell-based or functional assay
# [13] = molecular target: HIV-1 Env of isolate MGRM-C-010 (HIV-1); assay: cell-based or functional assay
# [14] = molecular target: HIV-1 Env of isolate MGRM-C-012 (HIV-1); assay: cell-based or functional assay
# [15] = molecular target: HIV-1 Env of isolate MGRM-C-013 (HIV-1); assay: cell-based or functional assay
# [16] = molecular target: HIV-1 Env of isolate MGRM-C-014 (HIV-1); assay: cell-based or functional assay
# [17] = molecular target: HIV-1 Env of isolate MGRM-C-015 (HIV-1); assay: cell-based or functional assay
# [18] = molecular target: HIV-1 Env of isolate MGRM-C-017 (HIV-1); assay: cell-based or functional assay
# [19] = molecular target: HIV-1 Env of isolate MGRM-C-019 (HIV-1); assay: cell-based or functional assay
# [20] = molecular target: HIV-1 Env of isolate MGRM-C-020 (HIV-1); assay: cell-based or functional assay
# [21] = molecular target: HIV-1 Env of isolate MGRM-C-022 (HIV-1); assay: cell-based or functional assay
# [22] = molecular target: HIV-1 Env of isolate MGRM-C-023 (HIV-1); assay: cell-based or functional assay
# [23] = molecular target: HIV-1 Env of isolate MGRM-C-024 (HIV-1); assay: cell-based or functional assay
# [24] = molecular target: HIV-1 Env of isolate MGRM-C-025 (HIV-1); assay: cell-based or functional assay
# [25] = molecular target: HIV-1 Env of pseudovirus isolate MGRM-G-001 (HIV-1); assay: cell-based or functional assay
# [26] = molecular target: HIV-1 Env of pseudovirus isolate MGRM-G-004 (HIV-1); assay: cell-based or functional assay
# [27] = molecular target: HIV-1 Env of pseudovirus isolate MGRM-G-006 (HIV-1); assay: cell-based or functional assay
# [28] = molecular target: HIV-1 Env of pseudovirus isolate MGRM-G-009 (HIV-1); assay: cell-based or functional assay
# [29] = molecular target: HIV-1 Env of pseudovirus isolate MGRM-G-011 (HIV-1); assay: cell-based or functional assay
# [30] = molecular target: HIV-1 Env of pseudovirus isolate MGRM-G-013 (HIV-1); assay: cell-based or functional assay
# [31] = molecular target: HIV-1 Env of pseudovirus isolate MGRM-G-014 (HIV-1); assay: cell-based or functional assay
# [32] = molecular target: HIV-1 Env of pseudovirus isolate MGRM-G-015 (HIV-1); assay: cell-based or functional assay
# [33] = molecular target: HIV-1 Env of pseudovirus isolate MGRM-G-016 (HIV-1); assay: cell-based or functional assay
# [34] = molecular target: HIV-1 Env of pseudovirus isolate MGRM-G-017 (HIV-1); assay: cell-based or functional assay
# [35] = molecular target: HIV-1 Env of pseudovirus isolate MGRM-G-019 (HIV-1); assay: cell-based or functional assay
# [36] = molecular target: HIV-1 Env of pseudovirus isolate MGRM-G-027 (HIV-1); assay: cell-based or functional assay
# [37] = molecular target: HIV-1 NL43 Env (pseudovirus) (HIV-1); assay: cell-based or functional assay
# [38] = molecular target: envelope of aMLV pseudovirus (negative control); assay: cell-based or functional assay
# WT JR-FL gp120 (HIV-1) = assay: ELISA, antigen-coated wells
Substance,neutralization IC50 [5],neutralization IC50 [6],neutralization IC50 [7],neutralization IC50 [8],neutralization IC50 [9],neutralization IC50 [10],neutralization IC50 [11],neutralization IC50 [12],neutralization IC50 [13],neutralization IC50 [14],neutralization IC50 [15],neutralization IC50 [16],neutralization IC50 [17],neutralization IC50 [18],neutralization IC50 [19],neutralization IC50 [20],neutralization IC50 [21],neutralization IC50 [22],neutralization IC50 [23],neutralization IC50 [24],further results
4838_L06 (PGT-121) (antibody),17.5 µg/mL,0.019 µg/mL,0.011 µg/mL,0.015 µg/mL,0.017 µg/mL,0.196 µg/mL,0.012 µg/mL,> 50 µg/mL,> 50 µg/mL,0.123 µg/mL,7.23 µg/mL,26.9 µg/mL,25.1 µg/mL,0.009 µg/mL,> 50 µg/mL,> 50 µg/mL,0.015 µg/mL,0.017 µg/mL,0.052 µg/mL,46.8 µg/mL,"neutralization IC50 (pseudovirus) [1]: > 10 µg/mL; neutralization IC50 (pseudovirus) [2]: > 10 µg/mL; neutralization IC50 (pseudovirus) [3]: > 10 µg/mL; neutralization IC50 (pseudovirus) [4]: > 10 µg/mL; IC50 (µg/mL), pseudovirus neutralization [25]: 0.004 µg/mL; IC50 (µg/mL), pseudovirus neutralization [26]: 0.115 µg/mL; IC50 (µg/mL), pseudovirus neutralization [27]: > 50 µg/mL; IC50 (µg/mL), pseudovirus neutralization [28]: 0.02 µg/mL; IC50 (µg/mL), pseudovirus neutralization [29]: 3.17 µg/mL; IC50 (µg/mL), pseudovirus neutralization [30]: 3.99 µg/mL; IC50 (µg/mL), pseudovirus neutralization [31]: 0.009 µg/mL; IC50 (µg/mL), pseudovirus neutralization [32]: > 50 µg/mL; IC50 (µg/mL), pseudovirus neutralization [33]: > 50 µg/mL; IC50 (µg/mL), pseudovirus neutralization [34]: 0.004 µg/mL; IC50 (µg/mL), pseudovirus neutralization [35]: 0.011 µg/mL; IC50 (µg/mL), pseudovirus neutralization [36]: 0.124 µg/mL; neutralization IC50 (pseudovirus) [37]: > 10 µg/mL; IC50 (µg/mL), pseudovirus neutralization [38]: > 50 µg/mL; EC50 (WT JR-FL gp120 (HIV-1)): 0.2 µg/mL"
5145_B14 (PGT-127) (antibody),> 50 µg/mL,0.057 µg/mL,0.532 µg/mL,0.57 µg/mL,0.319 µg/mL,> 50 µg/mL,> 50 µg/mL,> 50 µg/mL,> 50 µg/mL,1.07 µg/mL,> 50 µg/mL,> 50 µg/mL,> 50 µg/mL,3.4 µg/mL,0.017 µg/mL,> 50 µg/mL,0.41 µg/mL,1.08 µg/mL,> 50 µg/mL,> 50 µg/mL,"IC50 (µg/mL), pseudovirus neutralization [25]: 0.113 µg/mL; IC50 (µg/mL), pseudovirus neutralization [26]: > 50 µg/mL; IC50 (µg/mL), pseudovirus neutralization [27]: > 50 µg/mL; IC50 (µg/mL), pseudovirus neutralization [28]: > 50 µg/mL; IC50 (µg/mL), pseudovirus neutralization [29]: > 50 µg/mL; IC50 (µg/mL), pseudovirus neutralization [30]: 7.7 µg/mL; IC50 (µg/mL), pseudovirus neutralization [31]: 0.009 µg/mL; IC50 (µg/mL), pseudovirus neutralization [32]: > 50 µg/mL; IC50 (µg/mL), pseudovirus neutralization [33]: > 50 µg/mL; IC50 (µg/mL), pseudovirus neutralization [34]: > 50 µg/mL; IC50 (µg/mL), pseudovirus neutralization [35]: 0.429 µg/mL; IC50 (µg/mL), pseudovirus neutralization [36]: > 50 µg/mL; IC50 (µg/mL), pseudovirus neutralization [38]: > 50 µg/mL; EC50 (WT JR-FL gp120 (HIV-1)): 0.1 µg/mL"
